Experimental data from US8440628B2, “Medical compositions containing ghrelin” (Daiichi Sankyo Company, Limited, priority 2002, dated 2013).

Columns and labels:
Assay type in all cases: physicochemical
[1] = Stability of human ghrelin in Britton-Robinson buffer solutions of various pH at 40°C (Example 3); conditions: pH range of 3 to 6, stored at 40° C. for 1 day (FIG. 3)
Protocol: Human ghrelin, which is one of the ghrelins, was dissolved in the Britton-Robinson buffer solutions which is adjusted by combining 0.04M phosphoric acid-acetic acid-boric acid aqueous solution and 0.2M sodium hydrate aqueous solution in appropriate ratio, having pH of 2.1, 3.1, 4.0, 5.0, 6.0, 7.0 and 7.9 to obtain an aqueous solution containing human ghrelin in the concentration of about 0.15 μmol/mL (0.5 mg/mL). The obtained solution was filled in brownish glass ampoules and the ampoules were sealed with fire. For the calculation of kinetic constant, the certain degrees of degradation products have to be occurred in the aqueous solution of the ghrelins, and therefore, the ampoules were stored at 40±1° C., which was severe conditions for storage. The concentration (residual ratio) of human ghrelin was conducted by HPLC with time. At the same time, the pH of the solution was measured and it was confirmed that there was no significant changes of pH in solution.
The kinetic constants in each pH solution were calculated from the sequential change of the residual ratio, and the results were shown in FIG. 2.

[2] = Stability of human ghrelin in pH-adjusted purified water at 25°C (Example 7); conditions: for Peak area ratio to total peak area: 25±2°C
Protocol: Human ghrelin was dissolved in the purified water with about 0.03 μmol/mL (0.1 mg/mL). […] This solution was divided into quarter, and one portion was kept alone and the pH values of the remaining three portions were adjusted to pH 1.8 (with 17 mM of hydrochloric acid), pH 3.9 (with 0.20 mM of hydrochloric acid) and pH 7.8 (with 0.24 mM of sodium hydroxide) respectively, by adding along with hydrochloric acid or sodium hydroxide aqueous solution.

[3] = Stability of human ghrelin in 0.1M HCl and Mcllvain buffer solutions of various pH at 25°C (Example 2, HPLC peak area ratio)
Protocol: Human ghrelin was dissolved in the following aqueous solutions in the concentration of about 0.15 μmol/mL (0.5 mg/mL).
0.1M HCl aqueous solution (pH: 1.1)
The pH was adjusted with 0.1M citric aqueous acid and 0.2M dibasic sodium phosphate aqueous solution.
Each solution were stored at 25±2° C. for 8, 24, 48 and 72 hours respectively, and the obtained solutions were detected by HPLC analysis in comparison to the solutions before storage. […] No significant changes of pH in solution before storage and after storage were observed.

Substance: desacylated human ghrelin (GSSFLSPEHQRVQQRKESKKPPAKLQPR; Ghrelin-28 desacyl; UniProt Q9UBU3 24-51, looked up) [Desacyl compound, degradation product obtained from the hydrolytic cleavage of octanoyl group of human ghrelin]
- Production of the degradation product in human ghrelin solution [1]: inhibited
- Production of the degradation product in human ghrelin solution ([2]; aqueous solution of pH 3.9 and 4.7, 25±2°C, up to 3 days): inhibited
- Peak area ratio to total peak area ([2]; human ghrelin 0.1 mg/mL in purified water adjusted to pH 1.8 with hydrochloric acid, 1 day after): 1.46%
- Peak area ratio to total peak area ([2]; human ghrelin 0.1 mg/mL in purified water adjusted to pH 1.8 with hydrochloric acid, before storage): 0.12%
- Peak area ratio to total peak area ([2]; human ghrelin 0.1 mg/mL in purified water adjusted to pH 3.9 with hydrochloric acid, 1 day after): 0.09%
- Peak area ratio to total peak area ([2]; human ghrelin 0.1 mg/mL in purified water adjusted to pH 3.9 with hydrochloric acid, 3 days after): 0.14%
- Peak area ratio to total peak area ([2]; human ghrelin 0.1 mg/mL in purified water adjusted to pH 3.9 with hydrochloric acid, before storage): 0.07%
- Peak area ratio to total peak area ([2]; human ghrelin 0.1 mg/mL in purified water adjusted to pH 7.8 with sodium hydroxide, 1 day after): 3.65%
- Peak area ratio to total peak area ([2]; human ghrelin 0.1 mg/mL in purified water adjusted to pH 7.8 with sodium hydroxide, 3 days after): 9.84%
- Peak area ratio to total peak area ([2]; human ghrelin 0.1 mg/mL in purified water adjusted to pH 7.8 with sodium hydroxide, before storage): 0.33%
- Peak area ratio to total peak area ([2]; human ghrelin 0.1 mg/mL in purified water, pH 4.7 (not adjusted), 1 day after): 0.15%
- Peak area ratio to total peak area ([2]; human ghrelin 0.1 mg/mL in purified water, pH 4.7 (not adjusted), 3 days after): 0.28%
- Peak area ratio to total peak area ([2]; human ghrelin 0.1 mg/mL in purified water, pH 4.7 (not adjusted), before storage): 0.06%
- Production of the degradation product in human ghrelin solution ([3]; Mcllvain buffer, pH range of 3.0 to 5.0, 25±2°C, up to 72 hours): inhibited
- Peak area ratio to total peak area ([3]; human ghrelin 0.5 mg/mL in 0.1M HCl aqueous solution, pH 1, 25±2°C, 8 hr. after): 4.88%
- Peak area ratio to total peak area ([3]; human ghrelin 0.5 mg/mL in 0.1M HCl aqueous solution, pH 1, 25±2°C, 8 hr. after, listed as desacyl compound): more than 3%
- Peak area ratio to total peak area ([3]; human ghrelin 0.5 mg/mL in 0.1M HCl aqueous solution, pH 1, 25±2°C, 24 hr. after): 13.31%
- Peak area ratio to total peak area ([3]; human ghrelin 0.5 mg/mL in 0.1M HCl aqueous solution, pH 1, 25±2°C, 48 hr. after): 24.63%
- Peak area ratio to total peak area ([3]; human ghrelin 0.5 mg/mL in 0.1M HCl aqueous solution, pH 1, 25±2°C, 72 hr. after): 34.17%
- Peak area ratio to total peak area ([3]; human ghrelin 0.5 mg/mL in 0.1M HCl aqueous solution, pH 1, 25±2°C, before storage): 0.27%
- Peak area ratio to total peak area ([3]; human ghrelin 0.5 mg/mL in Mcllvain buffer, pH 2, 25±2°C, 8 hr. after): 0.34%
- Peak area ratio to total peak area ([3]; human ghrelin 0.5 mg/mL in Mcllvain buffer, pH 2, 25±2°C, 24 hr. after): 0.89%
- Peak area ratio to total peak area ([3]; human ghrelin 0.5 mg/mL in Mcllvain buffer, pH 2, 25±2°C, 48 hr. after): 1.76%
- Peak area ratio to total peak area ([3]; human ghrelin 0.5 mg/mL in Mcllvain buffer, pH 2, 25±2°C, 48 hr. after, listed as desacyl compound): more than 1%
- Peak area ratio to total peak area ([3]; human ghrelin 0.5 mg/mL in Mcllvain buffer, pH 2, 25±2°C, 72 hr. after): 2.59%
- Peak area ratio to total peak area ([3]; human ghrelin 0.5 mg/mL in Mcllvain buffer, pH 2, 25±2°C, before storage): 0.10%
- Peak area ratio to total peak area ([3]; human ghrelin 0.5 mg/mL in Mcllvain buffer, pH 3, 25±2°C, 8 hr. after): 0.20%
- Peak area ratio to total peak area ([3]; human ghrelin 0.5 mg/mL in Mcllvain buffer, pH 3, 25±2°C, 24 hr. after): 0.38%
- Peak area ratio to total peak area ([3]; human ghrelin 0.5 mg/mL in Mcllvain buffer, pH 3, 25±2°C, 48 hr. after): 0.67%
- Peak area ratio to total peak area ([3]; human ghrelin 0.5 mg/mL in Mcllvain buffer, pH 3, 25±2°C, 72 hr. after): 0.98%
- Peak area ratio to total peak area ([3]; human ghrelin 0.5 mg/mL in Mcllvain buffer, pH 3, 25±2°C, before storage): 0.10%
- Peak area ratio to total peak area ([3]; human ghrelin 0.5 mg/mL in Mcllvain buffer, pH 4, 25±2°C, 8 hr. after): 0.12%
- Peak area ratio to total peak area ([3]; human ghrelin 0.5 mg/mL in Mcllvain buffer, pH 4, 25±2°C, 24 hr. after): 0.21%
- Peak area ratio to total peak area ([3]; human ghrelin 0.5 mg/mL in Mcllvain buffer, pH 4, 25±2°C, 48 hr. after): 0.37%
- Peak area ratio to total peak area ([3]; human ghrelin 0.5 mg/mL in Mcllvain buffer, pH 4, 25±2°C, 72 hr. after): 0.51%
- Peak area ratio to total peak area ([3]; human ghrelin 0.5 mg/mL in Mcllvain buffer, pH 4, 25±2°C, before storage): 0.09%
- Peak area ratio to total peak area ([3]; human ghrelin 0.5 mg/mL in Mcllvain buffer, pH 5, 25±2°C, 8 hr. after): 0.14%
- Peak area ratio to total peak area ([3]; human ghrelin 0.5 mg/mL in Mcllvain buffer, pH 5, 25±2°C, 24 hr. after): 0.24%
- Peak area ratio to total peak area ([3]; human ghrelin 0.5 mg/mL in Mcllvain buffer, pH 5, 25±2°C, 48 hr. after): 0.45%
- Peak area ratio to total peak area ([3]; human ghrelin 0.5 mg/mL in Mcllvain buffer, pH 5, 25±2°C, 72 hr. after): 0.61%
- Peak area ratio to total peak area ([3]; human ghrelin 0.5 mg/mL in Mcllvain buffer, pH 5, 25±2°C, before storage): 0.10%
- Peak area ratio to total peak area ([3]; human ghrelin 0.5 mg/mL in Mcllvain buffer, pH 6, 25±2°C, 8 hr. after): 0.28%
- Peak area ratio to total peak area ([3]; human ghrelin 0.5 mg/mL in Mcllvain buffer, pH 6, 25±2°C, 24 hr. after): 0.70%
- Peak area ratio to total peak area ([3]; human ghrelin 0.5 mg/mL in Mcllvain buffer, pH 6, 25±2°C, 48 hr. after): 1.33%
- Peak area ratio to total peak area ([3]; human ghrelin 0.5 mg/mL in Mcllvain buffer, pH 6, 25±2°C, 48 hr. after, listed as desacyl compound): more than 1%
- Peak area ratio to total peak area ([3]; human ghrelin 0.5 mg/mL in Mcllvain buffer, pH 6, 25±2°C, 72 hr. after): 1.97%
- Peak area ratio to total peak area ([3]; human ghrelin 0.5 mg/mL in Mcllvain buffer, pH 6, 25±2°C, before storage): 0.10%
- Peak area ratio to total peak area ([3]; human ghrelin 0.5 mg/mL in Mcllvain buffer, pH 7, 25±2°C, 8 hr. after): 0.92%
- Peak area ratio to total peak area ([3]; human ghrelin 0.5 mg/mL in Mcllvain buffer, pH 7, 25±2°C, 24 hr. after): 2.70%
- Peak area ratio to total peak area ([3]; human ghrelin 0.5 mg/mL in Mcllvain buffer, pH 7, 25±2°C, 24 hr. after, listed as desacyl compound): more than 1%
- Peak area ratio to total peak area ([3]; human ghrelin 0.5 mg/mL in Mcllvain buffer, pH 7, 25±2°C, 48 hr. after): 5.22%
- Peak area ratio to total peak area ([3]; human ghrelin 0.5 mg/mL in Mcllvain buffer, pH 7, 25±2°C, 72 hr. after): 7.67%
- Peak area ratio to total peak area ([3]; human ghrelin 0.5 mg/mL in Mcllvain buffer, pH 7, 25±2°C, before storage): 0.16%
- Peak area ratio to total peak area ([3]; human ghrelin 0.5 mg/mL in Mcllvain buffer, pH 8, 25±2°C, 8 hr. after): 3.92%
- Peak area ratio to total peak area ([3]; human ghrelin 0.5 mg/mL in Mcllvain buffer, pH 8, 25±2°C, 8 hr. after, listed as desacyl compound): more than 3%
- Peak area ratio to total peak area ([3]; human ghrelin 0.5 mg/mL in Mcllvain buffer, pH 8, 25±2°C, 24 hr. after): 10.57%
- Peak area ratio to total peak area ([3]; human ghrelin 0.5 mg/mL in Mcllvain buffer, pH 8, 25±2°C, 48 hr. after): 19.54%
- Peak area ratio to total peak area ([3]; human ghrelin 0.5 mg/mL in Mcllvain buffer, pH 8, 25±2°C, 72 hr. after): 27.26%
- Peak area ratio to total peak area ([3]; human ghrelin 0.5 mg/mL in Mcllvain buffer, pH 8, 25±2°C, before storage): 0.47%
